Reference: article PMC7960543 (The Journal of Biological Chemistry, 2021)

B1: recombinant soluble CD40L (residues 118–261) with no N-terminal KGD motif, wild type [not stated] / CD40 fragment (residues 21–144) fused to GST [not stated] (parent complex)
chain 1: QNPQIAAHVISEASSKTTSVLQWAEKGYYTMSNNLVTLENGKQLTVKRQGLYYIYAQVTFCSNREASSQAPFIASLCLKSPGRFERILLRAANTHSSAKPCGQQSIHLGGVFELQPGASVFVNVTDPSQVSHGTGFTSFGLLKL
chain 2: EPPTACREKQYLINSQCCSLCQPGQKLVSDCTEFTETECLPCGESEFLDTWNRETHCHQHKYCDPNLGLRVQQKGTSETDTICTCEEGWHCTSEACESCVLHRSCSPGFGVKQIATGVSDTICE

Variants of: B1
Test: ELISA; GST-CD40 (21–144) immobilized at 100 μg/ml in PBS; CD40L mutants 20 μg/ml; detection with anti-histidine Abs; read off a plot
chain 1 QNPQIAAHVISEASSKTTSVLQWAEKGYYTMSNNLVTPENGKQLTVKRQGLYYIYAQVTFCSNREASSQAPFIASLCLKSPGRFERILLRAANTHSSAKPCGQQSIHLGGVFELQPGASVFVNVTDPSQVSHGTGFTSFGLLKL [chain 1 L38P] was tested, and the response was ~0.24 OD450.
chain 1 QNPQIAAHVISEASSKTTSVLQWAETGYYTMSNNLVTLENGKQLTVKRQGLYYIYAQVTFCSNREASSQAPFIASLCLKSPGRFERILLRAANTHSSAKPCGQQSIHLGGVFELQPGASVFVNVTDPSQVSHGTGFTSFGLLKL [chain 1 K26T] showed a response of ~0.32 OD450.
In the case of chain 1 QNPQIAAHVISEASSKTTSVLQWAEKEYYTMSNNLVTLENGKQLTVKRQGLYYIYAQVTFCSNREASSQAPFIASLCLKSPGRFERILLRAANTHSSAKPCGQQSIHLGGVFELQPGASVFVNVTDPSQVSHGTGFTSFGLLKL [chain 1 G27E], the response is reported as ~0.35 OD450.
chain 1 QNPQIAAHVIRGASSKTTSVLQWAEKGYYTMSNNLVTLENGKQLTVKRQGLYYIYAQVTFCSNREASSQAPFIASLCLKSPGRFERILLRAANTHSSAKPCGQQSIHLGGVFELQPGASVFVNVTDPSQVSHGTGFTSFGLLKL [chain 1 S11R, chain 1 E12G] was tested, and the response was ~0.29 OD450.
